Values of other authors as cited in paper PMC7708053.

Molecular target: T1, hnRNP L (cited Kd) (UniProt P14866)
T1 sequence: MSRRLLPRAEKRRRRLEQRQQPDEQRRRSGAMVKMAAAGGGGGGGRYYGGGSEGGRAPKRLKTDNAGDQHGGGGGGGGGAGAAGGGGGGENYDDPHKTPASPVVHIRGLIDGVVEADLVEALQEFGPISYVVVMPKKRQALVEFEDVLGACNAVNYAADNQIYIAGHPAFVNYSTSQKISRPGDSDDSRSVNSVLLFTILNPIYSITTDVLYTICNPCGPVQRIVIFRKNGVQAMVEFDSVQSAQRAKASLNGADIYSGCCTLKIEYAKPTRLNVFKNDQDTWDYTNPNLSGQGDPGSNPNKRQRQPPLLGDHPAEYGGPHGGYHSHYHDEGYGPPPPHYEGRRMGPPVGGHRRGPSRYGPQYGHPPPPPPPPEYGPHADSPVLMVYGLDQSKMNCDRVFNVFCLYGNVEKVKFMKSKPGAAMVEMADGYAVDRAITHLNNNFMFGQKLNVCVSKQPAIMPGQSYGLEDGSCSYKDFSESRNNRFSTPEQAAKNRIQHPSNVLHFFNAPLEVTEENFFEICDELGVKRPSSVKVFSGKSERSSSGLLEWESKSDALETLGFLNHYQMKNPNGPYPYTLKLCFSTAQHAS
Assay: not stated (cited)
Conditions: 50 pmol biotinylated RNA on streptavidin beads with HeLa lysate in RIPA (50 mM Tris-Cl pH 7.4, 150 mM NaCl, 5 mM EDTA, 1% NP-40), washed at 300 mM KCl …

With “AUACAUGACACACACACGCA [CA-SELEX#51 20-mer]” as the sequence, how does the Kd read?
Its Kd is 7.2 nM.
